The values that follow come from patent US12723105 (BEIJING STARMAB BIOMED TECHNOLOGY, dated 2026).

What is called Kd is the equilibrium constant for the complex coming apart. The term koff denotes the first-order rate constant of dissociation. A low value points to a long-lived complex. As a reminder, the kon is the rate constant with which the complex forms. High values mean fast association, low ones slow association.

First the molecules themselves.
T1: human LAG3 (human, UniProt P18627 29-450, limits assumed)
T1 construct: also called hLAG3
T1 sequence: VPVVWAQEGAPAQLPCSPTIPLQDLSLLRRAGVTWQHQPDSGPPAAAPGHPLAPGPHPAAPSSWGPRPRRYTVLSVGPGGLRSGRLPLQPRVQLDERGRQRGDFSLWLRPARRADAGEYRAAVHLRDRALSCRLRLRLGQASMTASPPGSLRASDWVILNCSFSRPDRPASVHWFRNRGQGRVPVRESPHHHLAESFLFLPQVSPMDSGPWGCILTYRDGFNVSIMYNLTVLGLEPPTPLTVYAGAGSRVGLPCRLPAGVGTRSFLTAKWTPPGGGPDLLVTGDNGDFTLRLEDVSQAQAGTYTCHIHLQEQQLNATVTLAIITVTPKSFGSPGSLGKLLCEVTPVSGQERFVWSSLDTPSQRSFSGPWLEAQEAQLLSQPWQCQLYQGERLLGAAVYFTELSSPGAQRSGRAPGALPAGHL

B1: 33-4 (VHH)
VHH: QVQLVESGGGSVQPGGSLRLSCEASGSIFSIAHMGWYRQAPGKQRELVAVISSGGRTNYVDSVKGRFTISRDNAKNTVYLQMNSLKAEDTAVYFCNVAVVGGPRFDYWGQGTQVTVSS
notes: not shown: C-terminal His-tag
B2: 33-1 (VHH)
VHH: QVQLVESGGGLVQTGGSLRLSCAASGGTFTNYAMGWFREAPGKEREFVAGINNNGDTLYNTNSVKGRFTISRDNAKNTVYLHMNSLKLEDTAVYYCAANLKGASWYSANYDYWGQGTQVTVSS
notes: not shown: C-terminal His-tag
B3: 33-8 (VHH)
VHH: EVQLMESGGGLVQAGGSLRLSCAASGRTVSTYVMGWFRQAPGKEREFVAEINRIGDTLYNRTSVKGRFTISRDNAKNTVYLQMNSLEPEDTAVYSCAARVIGTSTYNYWGQGTQVTVSS
notes: not shown: C-terminal His-tag
B4: 33-2 (VHH)
VHH: QVQLVESGGGLVQAGGSLRLSCTASANILRTAPMAWYRQAPGKQREFVALITADGTTDYQESVKGRFTTSRDNAKNTVYLQMNSLQSEDTARYFCKVYSYWGQGTQVTVSS
notes: not shown: C-terminal His-tag
B5: 33-14 (VHH)
VHH: QVQLVESGGGLVQAGDSLKLSCAASGRTSLILAMAWWRQAPGKEREFAGRIWWNNDMTRYSDSVKGRFTISKDNTKNMVYLRMDNLGPEDTAVYYCEADLIGGSRGWGQGTQVTVSS
notes: not shown: C-terminal His-tag
B6: LG-D8 (VHH)
VHH: QVQLVESGGGLVQPGGSLRLSCAASGFTFGKYAMSWVRQVPDKGLEWVSSISSSGRDTSYADSAKGRFTIFRNNAANTVYLQMDNLKLEDTGVYYCVKCLEVWATREYDGWGQGTQVTVSS
notes: not shown: C-terminal His-tag
B7: LG22 (VHH)
VHH: EVQLVESGGGLVQPGGSLRLSCAASGFTLDYYAIGWFRQAPGKEREGVSCIINSDGSTYYADSVKGRFTISRDNAKNTVYLQMNSLKPEDTAVYYCATDRYSDCRGPYDYWGQGTQVTVSS
notes: not shown: C-terminal His-tag
B8: LG2 (VHH)
VHH: QVQLVESGGGLVQPGGSLRLSCAASGTIFSINAMGWYRQAPGKQRELVAIVTFGGSTNYADSVKGRFTISRDNAKNTVYLQMNSLKPEDTAVYYCSARNVQSPVQYHLAVWGQGTLVTVSS
notes: not shown: C-terminal His-tag
B9: LG6 (VHH)
VHH: EVQLVESGGGLVQAGGSLRLSCAVSGSIFSISTMGWYRQAPGKQRELVASITARGSADYADSVKGRFTISRDNAKNTVYLQMSSLKPEDTAVYYCNTDTRSTLYHYSWGQGTQVTVSS
notes: not shown: C-terminal His-tag
B10: LG19 (VHH)
VHH: QVQLVESGGGLVQPGGSLRLSCAASGFTLDYYAIGWFRQAPGKEREGVSCISSSDGSTYYADSVKGRFTISRDNAKNTVYLQMNSLKPEDTAVYYCAADRRGSCRQYDYWGQGTQVTVSS
notes: not shown: C-terminal His-tag
B11: hLG9 (VHH)
VHH: EVQLLESGGGLVQPGGSLRLSCAASGSTIDDYPMSWFRQAPGKGREGVAAIDDSDESTYYADSVKGRFTISRDNSKNTLYLQMNSLRAEDTAVYYCARGAIFMIDGVDVFLTYYYDSWGQGTLVTVSS
notes: also called LG9H; not shown: C-terminal His-tag
B12: LG9 (VHH)
VHH: EVQLVESGGGLVQPGGSLRLSCAASGSTIDDYPIGWFRQAPGKEREGVSCIDDSDESTYYADSVKGRFTISRDNAKNTVYLQMNSLKPEDTAVYYCARGAIFMIDGVDVFLTYYYDSWGQGTQVTVSS
notes: not shown: C-terminal His-tag
B13: LG99 (VHH)
VHH: EVQLLESGGGLVQPGGSLRLSCAASGSTIDDYPMSWFRQAPGKGREGVAAIDDSDESTYYADSVKGRFTISRDNSKNTLYLQMNSLRAEDTAVYYCARGALFMIDGVDVFLTYYFEFWGQGTLVTVSS
notes: not shown: C-terminal His-tag
B14: A09-08 (VHH)
VHH: QVQLVESGGGLVQAGGSLRLSCAASGYGVNSYALGWFRQAPGKEREFVAAISRSGGNINYADSAKGRFTISRDNFKNTTYLQMSSLKPEDTAVYYCAAHYLLLPSYISTSTNMYNYWGQGTQVTVSS
notes: not shown: C-terminal His-tag
B15: A09-006 (VHH)
VHH: QVQLVESGGGLVQAGGSLRLSCAASGIRFFGSALGWFRQAPGKEREFVAAISRSGGNINYADSAKGRFTISRDNFKNTTYLQMSSLKPEDTAVYYCAAHYLLLPSYISTSTNMYNYWGQGTQVTVSS
notes: also called A09-06; not shown: C-terminal His-tag
B16: A09-61 (VHH)
VHH: QVQLVESGGGLVQAGGSLRLSCAASGYGVNSYALGWFRQAPGKEREFVAAISRSGGNINYADSAKGRFTISRDNFKNTTYLQMSSLKPEDTAVYYCAAHYLLLPSYISFASKMYNYWGQGTQVTVSS
notes: not shown: C-terminal His-tag
B17: A09-31 (VHH)
VHH: QVQLVESGGGLVQAGGSLRLSCAASGYGVNSYALGWFRQAPGKEREFVAAISRSGGNINYADSAKGRFTISRDNFKNTTYLQMSSLKPEDTAVYYCAAHYLLLPSYIATAIKMYNYWGQGTQVTVSS
notes: not shown: C-terminal His-tag
B18: A09-10 (VHH)
VHH: QVQLVESGGGLVQAGGSLRLSCAASGGGRTFSNYALGWFRQAPGKEREFVAAISRSGGNINYADSAKGRFTISRDNFKNTTYLQMSSLKPEDTAVYYCAAHYLLLPSYISTSTNMYNYWGQGTQVTVSS
notes: not shown: C-terminal His-tag
B19: hA09-10 (VHH)
VHH: EVQLVESGGGLVQPGGSLRLSCAASGGGRTFSNYALGWFRQAPGKEREFVAAISRSGGNINYADSVKGRFTISRDNAKNTVYLQMSSLRAEDTAVYYCAAHYLLLPSYISTSTNMYNYWGQGTQVTVSS
notes: also called humanized A09-10; not shown: C-terminal His-tag

One assay deals with Human CD33 (human, UniProt P20138 18-259). Put plainly: BLI (Octet) as in Example 1, His-tagged VHH, human CD33.
Human CD33, sequence (P20138 18-259 limits assumed): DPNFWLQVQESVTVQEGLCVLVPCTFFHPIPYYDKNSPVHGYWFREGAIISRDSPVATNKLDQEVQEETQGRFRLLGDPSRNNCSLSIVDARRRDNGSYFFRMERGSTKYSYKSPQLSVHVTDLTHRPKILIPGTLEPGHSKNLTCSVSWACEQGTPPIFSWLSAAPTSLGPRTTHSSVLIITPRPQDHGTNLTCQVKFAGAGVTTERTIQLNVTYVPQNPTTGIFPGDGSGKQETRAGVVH
B1 returned a Kd of 0.995 nM, a koff of 0.0009 s⁻¹ and a kon of 900000 M⁻¹ s⁻¹.

B2: the Kd came out at 1.01 nM, the koff worked out at 0.00081 s⁻¹ and the kon is 800000 M⁻¹ s⁻¹.

In turn, B3 had a Kd of 0.511 nM, a koff of 0.0007 s⁻¹ and a kon of 1.1e+06 M⁻¹ s⁻¹.

For the molecule B4, the Kd turned out to be 0.753 nM, the koff worked out at 0.0006 s⁻¹ and the kon stood at 800000 M⁻¹ s⁻¹.

B5 yielded a Kd of 0.136 nM, a koff of 0.000109 s⁻¹ and a kon of 800000 M⁻¹ s⁻¹.

A further assay addresses T1, human LAG3. The assay can be described thus: BLI (Octet) as in Examples 1-4, His-tagged VHH, human LAG3. On the technique in general: BLI is a label-free optical method that tracks binding on a fibre tip over time.
In turn, B6 yielded a Kd of 2.98 nM, a koff of 9.82e-05 s⁻¹ and a kon of 33000 M⁻¹ s⁻¹.

In turn, B7 returned a Kd of 0.267 nM, a koff of 1.14e-05 s⁻¹ and a kon of 42700 M⁻¹ s⁻¹.

Molecule B8 showed a Kd of 630 nM, a koff of 0.021 s⁻¹ and a kon of 33300 M⁻¹ s⁻¹.

B9 returned a Kd of 19 nM, a koff of 0.000522 s⁻¹ and a kon of 27500 M⁻¹ s⁻¹.

Molecule B10 registered an equilibrium dissociation constant (Kd) of 0.114 nM, a koff of 1.09e-05 s⁻¹ and a kon of 87000 M⁻¹ s⁻¹.

The molecule B11 displayed a Kd of 2.71 nM, a koff of 0.000298 s⁻¹ and a kon of 110000 M⁻¹ s⁻¹.

The molecule B12 came in with a Kd of 1.77 nM, a koff of 0.00011 s⁻¹ and a kon of 62100 M⁻¹ s⁻¹.

B13 came in with a Kd of 0.0792 nM, a koff of 2.91e-05 s⁻¹ and a kon of 367000 M⁻¹ s⁻¹.

Another assay has as its target T2, human CD47 (R & D systems) (human, UniProt Q08722 19-139).
T2 construct: The Octet analyte was bought (R&D Systems); also called Human CD47 antigen; hCD47
The assay can be described thus: BLI (Octet), His-tagged VHH on anti-penta-His tips, soluble human CD47.
The molecule B14 returned a Kd of 0.063 nM, a koff of 2.1e-06 s⁻¹ and a kon of 33300 M⁻¹ s⁻¹.

B15 returned a Kd of 0.0114 nM, a koff of 1.09e-06 s⁻¹ and a kon of 87000 M⁻¹ s⁻¹.

B16: binding was characterised by a dissociation constant (Kd) of 1.77 nM, the koff came out at 0.00011 s⁻¹ and the kon came to 62100 M⁻¹ s⁻¹.

In the case of B17, binding was characterised by a dissociation constant (Kd) of 19 nM, the koff is 0.000522 s⁻¹ and the kon is 27500 M⁻¹ s⁻¹.

B18 returned a Kd of 0.0267 nM, a koff of 1.14e-06 s⁻¹ and a kon of 42700 M⁻¹ s⁻¹.

As for B19, binding was put at a Kd of 0.0276 nM, the koff came out at 1.1e-06 s⁻¹ and the kon was 39800 M⁻¹ s⁻¹.
